Measurements published in PMC7116876, “Mechanistic Insights into Regulation of the ALC1 Remodeler by the Nucleosome Acidic Patch” (Cell reports, 2020).

System: sites of DNA damage in U2OS cells
Experiment: Recruitment of YFP-ALC1 to DNA breaks upon laser damage
Assay type: cell-based, Homo sapiens
Details: YFP-ALC1 R860W background, 405 nm laser damage
Procedure: U2OS Flp-In T-REx cells were a kind gift from Durocher lab and maintained in DMEM medium (GIBCO/Thermo Fisher) supplemented with 10% FBS and Pen/Strep with 15.5 μg/ml zeocin (Invitrogen) and 4 μg/ml blasticidin. CRISPR inactivation of ALC1 was carried out in Flp-In T-REx U2OS cells by transiently expressing Cas9 and gRNA targeting Exon3 of ALC1 F-oligo: CACCGCAG GAAGATTAAATGATGAA R-oligo: […] with px459 (addgene) ([Ran et al., 2013]). Single cell clones were grown by limiting dilution and then screened for ALC1 expression by western blot. […]
Cells were seeded on 8 well Lab-Tek chamber slides (Thermo Fisher Scientific). […] In order to monitor the association kineticsof YFP-tagged ALC1 at sites of laser micro-irradiation, the time evolution of YFP fluorescence in the damaged region of interest was recorded upon excitation with a 488 nm laser. Recruitment of YFP to bleached ROIs was analyzed in FIJI ([Schindelin et al., 2012]) and data were processed in R. In brief, nuclear masks were segmented by local thresholding. […] In order to quantify recruitment, the mean YFP fluorescence intensities at a given time point t (It) were normalized to the mean initial fluorescence intensities I0 of the same region of interest. Normalized intensities were additionally multiplied with BGI0/BGIt to correct for photobleaching, where BGI represents the background fluorescence intensity. […]

B1: R611A/S612A: YFP-ALC1 with R611A/S612A linker mutation and R860W, expressed in U2OS cells (protein, UniProt Q86WJ1 1-897, looked up, variant R611A S612A R860W)
Chromodomain-helicase-DNA-bind …: MERAGATSRGGQAPGFLLRLHTEGRAEAARVQEQDLRQWGLTGIHLRSYQLEGVNWLAQRFHCQNGCILGDEMGLGKTCQTIALFIYLAGRLNDEGPFLILCPLSVLSNWKEEMQRFAPGLSCVTYAGDKEERACLQQDLKQESRFHVLLTTYEICLKDASFLKSFPWSVLVVDEAHRLKNQSSLLHKTLSEFSVVFSLLLTGTPIQNSLQELYSLLSFVEPDLFSKEEVGDFIQRYQDIEKESESASELHKLLQPFLLRRVKAEVATELPKKTEVVIYHGMSALQKKYYKAILMKDLDAFENETAKKVKLQNILSQLRKCVDHPYLFDGVEPEPFEVGDHLTEASGKLHLLDKLLAFLYSGGHRVLLFSQMTQMLDILQDYMDYRGYSYERVDGSVRGEERHLAIKNFGQQPIFVFLLSTRAGGVGMNLTAADTVIFVDSDFNPQNDLQAAARAHRIGQNKSVKVIRLIGRDTVEEIVYRKAASKLQLTNMIIEGGHFTLGAQKPAADADLQLSEILKFGLDKLLASEGSTMDEIDLESILGETKDGQWVSDALPAAEGGSRDQEEGKNHMYLFEGKDYSKEPSKEDRKSFEQLVNLQKTLLEKASQEGAALRNKGSVLIPGLVEGSTKRKRVLSPEELEDRQKKRQEAAAKRRRLIEEKKRQKEEAEHKKKMAWWESNNYQSFCLPSEESEPEDLENGEESSAELDYQDPDATSLKYVSGDVTHPQAGAEDALIVHCVDDSGHWGRGGLFTALEKRSAEPRKIYELAGKMKDLSLGGVLLFPVDDKESRNKGQDLLALIVAQHRDRSNVLSGIKMAALEEGLKKIFLAAKKKKASVHLPRIGHATKGFNWYGTERLIWKHLAARGIPTYIYYFPRSKSAVLHSQSSSSSSRQLVP
modifications: YFP fusion
notes: YFP-ALC1 with R611A/S612A linker mutation and R860W, expressed in U2OS cells
N ≥ 131 traces from 3 independent experiments
  overall extent of ALC1 recruitment to sites of DNA damage: notably compromised the overall extent of ALC1 recruitment
single-exponential half times, n ≥ 131 traces
  recruitment kinetics at sites of DNA damage: only modestly delayed recruitment kinetics
